Results published in patent publication US20230052646A1 (JJP BIOLOGICS SP Z O O, published 2023).

Tests used:
[1] = target: T1, membrane-bound full-length cynomolgus monkey HVEM on transiently transfected HEK293F cells (cynomolgus monkey (Macaca fascicularis)); assay: FACS, undiluted hybridoma supernatant
T1 construct: also called cynomolgus HVEM
T1 chain: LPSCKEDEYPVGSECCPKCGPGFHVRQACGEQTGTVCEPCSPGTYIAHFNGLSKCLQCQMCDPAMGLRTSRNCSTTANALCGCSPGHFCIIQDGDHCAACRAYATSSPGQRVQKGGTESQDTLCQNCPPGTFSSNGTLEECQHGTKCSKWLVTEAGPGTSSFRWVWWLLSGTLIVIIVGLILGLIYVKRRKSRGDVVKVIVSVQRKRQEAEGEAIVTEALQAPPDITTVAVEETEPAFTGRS
Protocol: (§1) Generation of human ‘full-length’ HVEM-transfected HEK293F cells (clone no. 128) is described in Example 1a. […] After 72 hours, surface cynomolgus monkey HVEM expression on transfected cells was analysed by FACS analysis. To this end, stable human full-length HVEM-transfected HEK293F cells and transient cynomolgus monkey full-length HVEM-transfected HEK293F cells were put at 10×10⁶ cells/mL in ice-chilled phosphate-buffered saline containing 0.1% BSA (Sigma)/0.05% NaN₃ (PBS/BSA/NaN₃) supplemented with 50 μg/mL human IgGs (blocking of possible Fcγ receptors; Sigma) for 10 minutes at 4° C. Then, 10 μL/tube (i.e., 0.1×10⁶ cells) of these cells were incubated with 100 μL undiluted hybridoma supernatant/tube for 30 minutes at 4° C. Phycoerythrin (PE)-conjugated mouse anti-human HVEM antibody (clone eBioHVEM-122; eBioscience) at 1:20 was run as a positive control antibody. After extensive washing in PBS/BSA/NaN₃, cells were subsequently incubated with 1:200 diluted PE-conjugated goat anti-mouse IgG Fcγ-specific antibodies (Jackson ImmunoResearch) for 30 minutes at 4° C. After extensive washing in PBS/BSA/NaN₃, cells were fixed in 2% formaldehyde in PBS/BSA/NaN₃ for 30 minutes at 4° C. Binding of antibodies was measured using a flow cytometer (model FACSCalibur; BD Biosciences).

[2] = target: T2, membrane-bound 'CRD1 truncated' human HVEM on transiently transfected HEK293F cells (human, UniProt Q92956 76-283); assay: FACS, undiluted hybridoma supernatant, CRD1 truncated HVEM on HEK293F
T2 construct: aa 1-19 are a mouse Ig signal peptide and are left out; Starts with CRD2; also called human HVEM deleted for CRD1; CRD1 truncated HVEM
T2 sequence: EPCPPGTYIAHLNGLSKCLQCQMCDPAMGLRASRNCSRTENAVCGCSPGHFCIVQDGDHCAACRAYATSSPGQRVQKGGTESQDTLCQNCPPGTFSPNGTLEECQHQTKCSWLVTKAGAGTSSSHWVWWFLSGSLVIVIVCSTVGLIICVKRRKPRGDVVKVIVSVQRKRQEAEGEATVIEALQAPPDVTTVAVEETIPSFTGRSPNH
Protocol: as §1, with “human” for “cynomolgus monkey”, “human ‘CRD1 truncated’” for “cynomolgus monkey full-length”

binding result [1]: no binding | binding result [2]: no binding
B1: mouse anti-human HVEM antibody no. 36H12 (antibody, mouse IgG1, V domains shown)
VH: EVQLQQSGAGLVKPGASVKLSCTASGFNIKDTYMHWVRQRPEQGLEWIGRIDPATANTKYDPKFQGKATLTTDTSSNTAYLQLSSLTSEDTAVYYCVTYGYDVSWFAYWGLGALVTVSA
VL: DVLMTQTPLSLPVSLGDQASISCRSSQSIVHSNGITYLEWYLQKPGQSPKLLIYKVSNRFSGVPDRFSGSGSGTDFTLKISRVEAEDLGVYYCFQGSHVPLTFGAGTKLELK
notes: mouse IgG1/kappa; also called 36H12 (mouse)
